Experimental data taken from article PMC8440562, “MAD2L2 dimerization and TRIP13 control shieldin activity in DNA repair” (Nature Communications, 2021).

B1: His6-EGFP-TRIP13^E253Q (enzyme, human, UniProt Q15645 1-432, looked up)
chain: MDEAVGDLKQALPCVAESPTVHVEVHQRGSSTAKKEDINLSVRKLLNRHNIVFGDYTWTEFDEPFLTRNVQSVSIIDTELKVKDSQPIDLSACTVALHIFQLNEDGPSSENLEEETENIIAANHWVLPAAEFHGLWDSLVYDVEVKSHLLDYVMTTLLFSDKNVNSNLITWNRVVLLHGPPGTGKTSLCKALAQKLTIRLSSRYRYGQLIEINSHSLFSKWFSESGKLVTKMFQKIQDLIDDKDALVFVLIDQVESLTAARNACRAGTEPSDAIRVVNAVLTQIDQIKRHSNVVILTTSNITEKIDVAFVDRADIKQYIGPPSAAAIFKIYLSCLEELMKCQIIYPRQQLLTLRELEMIGFIENNVSKLSLLLNDISRKSEGLSGRVLRKLPFLAHALYVQAPTVTIEGFLQALSLAVDKQFEERKKLAAYI
notes: TRIP13, human, with E253Q; printed mass of GFP-TRIP13 75.5 kDa; source: insect cells (Hi5, baculovirus, biGBac), purified
B2: TRIP13^E253Q (48.5 kDa form, Fig. 3f) (enzyme, human, UniProt Q15645 1-432, looked up)
chain: B1 chain
notes: TRIP13, human, with E253Q; printed mass 48.5 kDa (291 kDa for hexamer); The printed mass fits TRIP13 without the EGFP fusion; source: insect cells (Hi5, baculovirus, biGBac), purified
B3: MBP-SHLD3^28-83 (domain or fragment, human, UniProt Q6ZNX1 28-83, looked up)
chain: QDFPTRPLSRFIPWFPYDGSKLPLRPKRSPPVISEEAAEDVKQYLTISEHDAKSHS
notes: SHLD3, human, residues 28-83; contains only the second RBM; also called SHLD3^28-83 peptide; SHLD3-fragment; source: E. coli Rosetta, purified (metal chelating column, SEC); not shown: hexahistidine-MBP, N-terminal, kept

Assays:
[1] = molecular target: the molecule itself; experiment: SEC; Superdex-200 in buffer C (25 mM Tris pH 8, 0.3 M NaCl, 10% glycerol, 0.5 mM TCEP, 10 mM MgCl2) + 0.1 mM ATP; proteins incubated 2 h on ice with 2 mM ATP before the run; equimolar in Fig. 3f
MAD2L2^WT (E. coli) = molecular target: T1, MAD2L2^WT (E. coli) (human, UniProt Q9UI95 1-211); experiment: pull-down; 0.25 uM MBP-SHLD3^28-83 pre-adsorbed on amylose beads, eightfold molar excess of MAD2L2 variant, time course at 4 C in buffer B (10 mM HEPES pH 7.5, 0.15 M NaCl, 5% glycerol, 0.5 mM TCEP); Coomassie SDS-PAGE; conditions: both partners purified
T1 construct: MAD2L2 (REV7), human; source: E. coli Rosetta, purified (metal chelating column, PreScission cleavage, SEC); not shown: GST/hexahistidine-MBP fusion-tag, N-terminal, cleaved
T1 sequence (Q9UI95 whole entry, the tested form may be a part): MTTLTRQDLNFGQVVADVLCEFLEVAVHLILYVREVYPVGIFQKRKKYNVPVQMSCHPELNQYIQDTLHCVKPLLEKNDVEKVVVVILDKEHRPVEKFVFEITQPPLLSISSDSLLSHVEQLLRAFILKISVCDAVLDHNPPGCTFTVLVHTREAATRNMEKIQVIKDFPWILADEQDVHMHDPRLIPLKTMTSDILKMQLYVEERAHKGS

MAD2L2^1xMut (E. coli) = molecular target: T2, MAD2L2^1xMut (E. coli) (human, UniProt Q9UI95 1-211, R124A); experiment: as above; conditions: both partners purified
T2 construct: MAD2L2 (REV7), human, with R124A; also called MAD2L2^R124A; source: E. coli Rosetta, purified (metal chelating column, PreScission cleavage, SEC); not shown: GST/hexahistidine-MBP fusion-tag, N-terminal, cleaved
T2 sequence (Q9UI95 whole entry R124A, the tested form may be a part): as the sequence (Q9UI95 whole entry, the tested form may be a part) above, with R124A counted along it

MAD2L2^3xMut (E. coli) = molecular target: T3, MAD2L2^3xMut (E. coli) (human, UniProt Q9UI95 1-211, K44A | R124A | A135D); experiment: as above; conditions: both partners purified
T3 construct: MAD2L2 (REV7), human, with K44A, R124A and A135D; also called MAD2L2^K44A/R124A/A135D; source: E. coli Rosetta, purified (metal chelating column, PreScission cleavage, SEC); not shown: GST/hexahistidine-MBP fusion-tag, N-terminal, cleaved
T3 sequence (Q9UI95 whole entry K44A/R124A/A135D, the tested form may be a part): as the sequence (Q9UI95 whole entry, the tested form may be a part) above, with K44A, R124A, A135D counted along it

Binder | stoichiometry N [1] | binding result (MAD2L2^WT (E. coli)) | binding result (MAD2L2^1xMut (E. coli)) | binding result (MAD2L2^3xMut (E. coli))
B1 | 6 |  |  | 
B2 | 6 |  |  | 
B3 |  | binds | binds | binds
